System: Escherichia coli TOP10
Assay: shrunken log2 fold change of peptide-encoding DNA abundance (4.5 h post-induction vs induction); higher = less antimicrobial activity (less host growth inhibition)
Settings: time post-induction: 4.5 h; library: site-saturation at positions 5, 18, 19, 20
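Also: peptides expressed intracellularly from a pBAD plasmid library in pooled LB shake-flask culture, induced with 0.3% L-arabinose, DNA abundance read by NGS, three biological replicates, DESeq2 with apeglm shrinkage.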

Row | Sequence | shrunken log2 fold change
1 | RRIRSRPPRLPRPRPRPLRKPRP | 0.383
2 | RRIRMRPPRLPRPRPRPGIHPRP | 0.142
3 | RRIRYRPPRLPRPRPRPRLPPRP | -0.0393
4 | RRIRARPPRLPRPRPRPGWTPRP | 0.525
5 | RRIRRRPPRLPRPRPRPYEWPRP | 0.00618
6 | RRIRPRPPRLPRPRPRPYYKPRP | -0.215
7 | RRIRQRPPRLPRPRPRPGIGPRP | -0.005
8 | RRIRKRPPRLPRPRPRPLECPRP | -0.00691
9 | RRIRLRPPRLPRPRPRPDKHPRP | -0.971
10 | RRIRLRPPRLPRPRPRPSQQPRP | -0.0225
11 | RRIRGRPPRLPRPRPRPLPEPRP | 0.884
12 | RRIRKRPPRLPRPRPRPQTHPRP | 0.372
13 | RRIRGRPPRLPRPRPRPPATPRP | 1.79
14 | RRIRYRPPRLPRPRPRPGFKPRP | -0.579
15 | RRIRARPPRLPRPRPRPWRDPRP | 0.225
16 | RRIRNRPPRLPRPRPRPHRHPRP | -0.222
17 | RRIRIRPPRLPRPRPRPTEKPRP | 0.0176
18 | RRIRNRPPRLPRPRPRPEGIPRP | 0.0204
19 | RRIRCRPPRLPRPRPRPNDEPRP | -0.0298
20 | RRIRERPPRLPRPRPRPEKQPRP | -0.00177
21 | RRIRHRPPRLPRPRPRPTQLPRP | 0.278
22 | RRIRDRPPRLPRPRPRPNFEPRP | 0.282
23 | RRIRVRPPRLPRPRPRPMSRPRP | 0.0217
24 | RRIRFRPPRLPRPRPRPILHPRP | -0.75
25 | RRIRERPPRLPRPRPRPGDSPRP | -1.02

Row | Sequence | shrunken log2 fold change
26 | RRIRERPPRLPRPRPRPLHFPRP | -0.141
27 | RRIRQRPPRLPRPRPRPENTPRP | -0.387
28 | RRIRPRPPRLPRPRPRPFIPPRP | -0.266
29 | RRIRVRPPRLPRPRPRPGVYPRP | -0.0713
30 | RRIRQRPPRLPRPRPRPVMHPRP | -0.679
31 | RRIRLRPPRLPRPRPRPLRQPRP | 0.385
32 | RRIRIRPPRLPRPRPRPQSGPRP | 0.00632
33 | RRIRSRPPRLPRPRPRPGYNPRP | -0.846
34 | RRIRNRPPRLPRPRPRPWRTPRP | -0.323
35 | RRIRERPPRLPRPRPRPQIRPRP | 0.0242
36 | RRIRTRPPRLPRPRPRPHWEPRP | -0.171
37 | RRIRRRPPRLPRPRPRPSPFPRP | 0.292
38 | RRIRQRPPRLPRPRPRPRDDPRP | 0.538
39 | RRIRWRPPRLPRPRPRPWMIPRP | -0.0414
40 | RRIRDRPPRLPRPRPRPRGCPRP | 0.786
41 | RRIRVRPPRLPRPRPRPFDMPRP | -0.16
42 | RRIRDRPPRLPRPRPRPERIPRP | -0.0322
43 | RRIRCRPPRLPRPRPRPDSLPRP | -0.0818
44 | RRIRPRPPRLPRPRPRPPEFPRP | -0.122
45 | RRIRYRPPRLPRPRPRPIIHPRP | -1.21
46 | RRIRWRPPRLPRPRPRPDVRPRP | -0.0136
47 | RRIRFRPPRLPRPRPRPFRDPRP | -0.276
48 | RRIRIRPPRLPRPRPRPTQSPRP | 0.575
49 | RRIRMRPPRLPRPRPRPDSSPRP | 0.0874
50 | RRIRTRPPRLPRPRPRPSTFPRP | -0.49

Row | Sequence | shrunken log2 fold change
51 | RRIRRRPPRLPRPRPRPSWNPRP | -0.157
52 | RRIRSRPPRLPRPRPRPQQTPRP | 0.0905
53 | RRIRDRPPRLPRPRPRPREWPRP | -0.00146
54 | RRIRNRPPRLPRPRPRPEFYPRP | -0.243
55 | RRIRLRPPRLPRPRPRPISYPRP | -0.334
56 | RRIRHRPPRLPRPRPRPVAFPRP | -0.187
57 | RRIRDRPPRLPRPRPRPMDRPRP | -0.01
58 | RRIRKRPPRLPRPRPRPDKAPRP | 0.0987
59 | RRIRCRPPRLPRPRPRPHHIPRP | -0.88
60 | RRIRRRPPRLPRPRPRPKTWPRP | -0.0361
61 | RRIRMRPPRLPRPRPRPVCCPRP | 0.496
62 | RRIRSRPPRLPRPRPRPNREPRP | -0.138
63 | RRIRDRPPRLPRPRPRPIYNPRP | -0.771
64 | RRIRPRPPRLPRPRPRPVMSPRP | 0.0198
65 | RRIRNRPPRLPRPRPRPFGNPRP | 0.0247
66 | RRIRARPPRLPRPRPRPNCNPRP | -0.116
67 | RRIRERPPRLPRPRPRPGFFPRP | -0.191
68 | RRIRCRPPRLPRPRPRPEVFPRP | 0.00979
69 | RRIRSRPPRLPRPRPRPVWLPRP | -0.388
70 | RRIRCRPPRLPRPRPRPMSGPRP | 0.198
71 | RRIRHRPPRLPRPRPRPSTMPRP | -0.493
72 | RRIRDRPPRLPRPRPRPNNIPRP | -0.558
73 | RRIRARPPRLPRPRPRPHDGPRP | 0.373
74 | RRIRRRPPRLPRPRPRPFTWPRP | -0.126
75 | RRIRNRPPRLPRPRPRPLVKPRP | -0.741

Row | Sequence | shrunken log2 fold change
76 | RRIRHRPPRLPRPRPRPFNWPRP | -0.194
77 | RRIRKRPPRLPRPRPRPASLPRP | -0.23
78 | RRIRNRPPRLPRPRPRPIRLPRP | -0.0969
79 | RRIRHRPPRLPRPRPRPFTFPRP | -0.0857
80 | RRIRHRPPRLPRPRPRPMRSPRP | -0.00134
81 | RRIRERPPRLPRPRPRPWDPPRP | 0.173
82 | RRIRCRPPRLPRPRPRPYSEPRP | -0.766
83 | RRIRHRPPRLPRPRPRPDLWPRP | 0.0395
84 | RRIRFRPPRLPRPRPRPDWLPRP | -0.0152
85 | RRIRKRPPRLPRPRPRPLKRPRP | 0.321
86 | RRIRLRPPRLPRPRPRPAPCPRP | 0.0424
87 | RRIRSRPPRLPRPRPRPNCEPRP | -0.133
88 | RRIRYRPPRLPRPRPRPHRYPRP | -0.41
89 | RRIRMRPPRLPRPRPRPITAPRP | 0.244
90 | RRIRQRPPRLPRPRPRPWPHPRP | 0.172
91 | RRIRDRPPRLPRPRPRPGEPPRP | 0.613
92 | RRIRGRPPRLPRPRPRPSCMPRP | 0.336
93 | RRIRIRPPRLPRPRPRPTSKPRP | -0.207
94 | RRIRFRPPRLPRPRPRPLPNPRP | 0.184
95 | RRIRARPPRLPRPRPRPAAQPRP | 0.916
96 | RRIRTRPPRLPRPRPRPEYFPRP | -0.186
97 | RRIRTRPPRLPRPRPRPRLFPRP | 0.207
98 | RRIRVRPPRLPRPRPRPGIEPRP | -0.28
99 | RRIRMRPPRLPRPRPRPQEDPRP | -0.0231
100 | RRIRCRPPRLPRPRPRPFNMPRP | -0.052

Row | Sequence | shrunken log2 fold change
101 | RRIRPRPPRLPRPRPRPIKYPRP | 0.32
102 | RRIRIRPPRLPRPRPRPIFKPRP | -0.226
103 | RRIRLRPPRLPRPRPRPHDKPRP | 0.0709
104 | RRIRARPPRLPRPRPRPYVFPRP | -0.245
105 | RRIRSRPPRLPRPRPRPIWAPRP | -0.133
106 | RRIRVRPPRLPRPRPRPEFQPRP | -0.0311
107 | RRIRERPPRLPRPRPRPAIDPRP | -0.457
108 | RRIRTRPPRLPRPRPRPKILPRP | -0.0614
109 | RRIRDRPPRLPRPRPRPCPVPRP | -0.426
110 | RRIRIRPPRLPRPRPRPQAAPRP | -0.115
111 | RRIRARPPRLPRPRPRPCYMPRP | -0.0886
112 | RRIRPRPPRLPRPRPRPMPSPRP | -0.0976
113 | RRIRARPPRLPRPRPRPFNGPRP | 0.0657
114 | RRIRCRPPRLPRPRPRPLHLPRP | -0.302
115 | RRIRYRPPRLPRPRPRPDPTPRP | -0.435
116 | RRIRCRPPRLPRPRPRPIYGPRP | -0.203
117 | RRIRWRPPRLPRPRPRPVEHPRP | -0.287
118 | RRIRWRPPRLPRPRPRPGCSPRP | 0.551
119 | RRIRVRPPRLPRPRPRPQDDPRP | -0.006
120 | RRIRERPPRLPRPRPRPVYIPRP | -0.0234
121 | RRIRVRPPRLPRPRPRPPFPPRP | 0.369
122 | RRIRRRPPRLPRPRPRPSGAPRP | 0.536
123 | RRIRMRPPRLPRPRPRPVSKPRP | 0.0965
124 | RRIRVRPPRLPRPRPRPVPDPRP | -0.103
125 | RRIRFRPPRLPRPRPRPKWLPRP | 0.251

Row | Sequence | shrunken log2 fold change
126 | RRIRARPPRLPRPRPRPNRKPRP | 0.131
127 | RRIRGRPPRLPRPRPRPHGSPRP | -0.0658
128 | RRIRWRPPRLPRPRPRPHSFPRP | -0.266
129 | RRIRMRPPRLPRPRPRPFFWPRP | 0.593
130 | RRIRWRPPRLPRPRPRPFGTPRP | 0.00184
131 | RRIRIRPPRLPRPRPRPDHAPRP | -0.0379
132 | RRIRTRPPRLPRPRPRPHCKPRP | -0.222
133 | RRIRDRPPRLPRPRPRPVNAPRP | 0.188
134 | RRIRTRPPRLPRPRPRPNQNPRP | -0.168
135 | RRIRSRPPRLPRPRPRPETLPRP | 0.0893
136 | RRIRQRPPRLPRPRPRPEEFPRP | -0.0679
137 | RRIRCRPPRLPRPRPRPTDPPRP | 0.102
138 | RRIRLRPPRLPRPRPRPPYKPRP | -0.292
139 | RRIRLRPPRLPRPRPRPRKKPRP | 0.355
140 | RRIRNRPPRLPRPRPRPFKHPRP | -0.39
141 | RRIRERPPRLPRPRPRPHPFPRP | -0.235
142 | RRIRIRPPRLPRPRPRPTACPRP | 0.0015
143 | RRIRERPPRLPRPRPRPPVGPRP | 0.0345
144 | RRIRKRPPRLPRPRPRPLYAPRP | 0.0609
145 | RRIRNRPPRLPRPRPRPETEPRP | -0.0793
146 | RRIRQRPPRLPRPRPRPRGMPRP | 0.143
147 | RRIRMRPPRLPRPRPRPNQSPRP | 0.176
148 | RRIRGRPPRLPRPRPRPFVIPRP | 0.215
149 | RRIRARPPRLPRPRPRPWMSPRP | 0.0814
150 | RRIRDRPPRLPRPRPRPAYMPRP | -0.342

Source: the supplement of paper PMC9112550, “Optimization of the antimicrobial peptide Bac7 by deep mutational scanning” (BMC Biology, 2022)
